Laboratory results published in doi:10.1101/2021.02.17.431743 (bioRxiv, 2021).

Target: full-length HeV-RBP (Hendra virus receptor binding protein); head, stalk, transmembrane, and cytoplasmic … (Hendra virus, UniProt O89343)
Assay: flow cytometry on cells

Chain of full-length HeV-RBP (Hendra virus receptor binding protein); head, stalk, transmembrane, and cytoplasmic … (O89343 whole entry): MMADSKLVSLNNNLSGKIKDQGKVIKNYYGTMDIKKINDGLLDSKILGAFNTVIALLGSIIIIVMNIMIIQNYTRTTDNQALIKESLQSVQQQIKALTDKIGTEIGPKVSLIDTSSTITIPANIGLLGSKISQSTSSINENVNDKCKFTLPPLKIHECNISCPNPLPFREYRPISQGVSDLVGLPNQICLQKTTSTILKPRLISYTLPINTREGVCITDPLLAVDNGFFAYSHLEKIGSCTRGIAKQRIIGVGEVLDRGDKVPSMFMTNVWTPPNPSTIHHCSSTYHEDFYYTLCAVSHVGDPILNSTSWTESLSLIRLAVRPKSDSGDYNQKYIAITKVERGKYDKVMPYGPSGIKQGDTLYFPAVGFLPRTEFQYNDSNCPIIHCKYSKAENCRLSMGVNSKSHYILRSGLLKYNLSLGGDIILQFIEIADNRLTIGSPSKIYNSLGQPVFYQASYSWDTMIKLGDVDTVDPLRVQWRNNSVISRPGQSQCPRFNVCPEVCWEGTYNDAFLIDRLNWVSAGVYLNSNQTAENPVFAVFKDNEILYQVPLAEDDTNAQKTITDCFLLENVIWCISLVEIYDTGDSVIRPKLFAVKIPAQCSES

| Binder | binding result |
| --- | --- |
| HENV-103 human monoclonal antibody (antibody, V domains shown) VH: QVQLQGSGPGLVKPSQTLSLTCSVSGGSVSRSGYYWGWIRQHPGKGLECIGYIYYSGITYYNPSLSGRLTISVDTSKNQFSLELSSVTAADTAVYYCARVWLGGGVFDFWGQGSLVTVSS VL: EIVMTQSPATLSVSPGEGATLSCRASQSVSSNLAWYQQKPGQAPRLLIYDASTRATGIPARFSGSGSGTEFTLTISSLQSEDFAVYYCQQYNDWRTFGRGTKVEMR | binds |
| HENV-117 human monoclonal antibody (antibody, V domains shown) VH: QVQLQQWGAGLLKPSETLSLTCDLSGGSFTNYYWTWIRHLPGKGLEWLGEINHSGRTNYSPSLKSRVTISVDTSKNQFSLRLSSVTAADTAVYYCARDIRKLAPKPHSYDLYYGMDVWGQGTTVTVSS VL: EIVLTQSPGTLSLSPGERATLSCRASQSVGSNYLTWYQQKPGQPPRLLIYGASNRAAGIPDRFSGSGSGTDFTLTISRLEPEDFAVYYCQQYETSSRTFGQGTKVDIR | binds |
